Assay results as given in patent US6872803 (Kyowa Kirin, dated 2005).
[ ]: non-standard residue; d: D form.

T1: Bovine lung-derived ANP receptor (bovine)
T1 chain: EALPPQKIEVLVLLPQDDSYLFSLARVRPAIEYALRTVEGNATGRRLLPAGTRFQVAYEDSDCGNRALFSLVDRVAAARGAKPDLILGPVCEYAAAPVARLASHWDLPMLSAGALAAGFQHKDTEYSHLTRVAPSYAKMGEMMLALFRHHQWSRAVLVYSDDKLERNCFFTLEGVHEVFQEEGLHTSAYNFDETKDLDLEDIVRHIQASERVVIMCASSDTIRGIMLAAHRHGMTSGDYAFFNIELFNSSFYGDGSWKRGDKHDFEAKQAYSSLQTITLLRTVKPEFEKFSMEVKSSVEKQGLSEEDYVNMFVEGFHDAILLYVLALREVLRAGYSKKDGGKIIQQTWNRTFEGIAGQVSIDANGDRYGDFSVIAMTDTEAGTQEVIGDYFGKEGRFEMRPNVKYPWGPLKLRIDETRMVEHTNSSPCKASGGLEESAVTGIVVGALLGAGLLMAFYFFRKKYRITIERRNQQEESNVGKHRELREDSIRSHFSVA

B1: Compound (f), H-Ser-Met-Gly-Leu-Pro-Cys-Ile-Phe-Met-OH (peptide)
peptide: H-SMGLPCIFM-OH
B2: Compound (e), H-Ser-Ser-Gly-Cys-Val-Leu-Ser-OH (peptide)
peptide: H-SSGCVLS-OH
B3: Compound (i), H-Phe-Gly-Gly-D-Arg-Ile-Asp-Arg-Ile-NH2 (peptide)
peptide: H-FGG[dR]IDRI-NH2
SMILES: CC[C@H](C)[C@H](NC(=O)[C@H](CCCNC(=N)N)NC(=O)[C@H](CC(=O)O)NC(=O)[C@@H](NC(=O)[C@@H](CCCNC(=N)N)NC(=O)CNC(=O)CNC(=O)[C@@H](N)Cc1ccccc1)[C@@H](C)CC)C(N)=O
B4: Compound (g), H-Phe-Gly-Gly-Arg-Ile-Asp-Arg-Ile-NH2 (peptide)
peptide: H-FGGRIDRI-NH2
B5: Compound (h), H-Ala-Phe-Gly-Gly-Arg-Ile-Asp-Arg-Ile-Gly-Ala-Ala-NH2 (peptide)
peptide: H-AFGGRIDRIGAA-NH2
B6: Compound (d), H-Ser-Met-Gly-Leu-Pro-Cys-Val-Val-Met-OH (peptide)
peptide: H-SMGLPCVVM-OH

Legend:
[1] = molecular target: T2, protein-farnesyltransferase derived from bovine brains (bovine, UniProt P29702 2-375; P49355 1-437); assay: cell-based or functional assay
[2] = molecular target: T1, Bovine lung-derived ANP receptor; assay: displacement of 125I-rat ANP from bovine lung membrane fraction, filter binding
[3] = molecular target: T2, protein-farnesyltransferase derived …; assay: cell-based or functional assay; remark: listed apart in the source

| Binder | IC50 (µM), transfer of [3H]-farnesyl diphosphate to Ras protein (v-Ki-Ras p21) [1] [µM] | IC50 [2] [nM] | IC50 (µM), intake of [3H]-farnesyl diphosphate by biotin-lamin-B peptide (SPA enzyme assay kit) [3] [µM] |
| --- | --- | --- | --- |
| B1 | 21 |  |  |
| B2 | 10 |  |  |
| B3 |  | 210 |  |
| B4 |  | 3.5 |  |
| B5 |  | 2.5 |  |
| B6 | 1.6 |  | 1.2 |
